Source: US20170173106A1, “Polypeptide Fragments of 168A-T2 and Compositions Comprising Them for Use in Treating Cancer” (GENE SIGNAL INTERNATIONAL SA, priority 2014, published 2017)

Experiments:
[1] = target: T1, CD9P-1 and CD81 association (Homo sapiens, UniProt P60033+Q9P2B2); experiment: Immunoprecipitation in HUVECs: CD9P-1 with CD81; type: cell-based; conditions: 33 μM; 2 hrs
T1 construct: endogenous in cells; host or cells: HUVEC
T1 sequence (Q9P2B2 26-879): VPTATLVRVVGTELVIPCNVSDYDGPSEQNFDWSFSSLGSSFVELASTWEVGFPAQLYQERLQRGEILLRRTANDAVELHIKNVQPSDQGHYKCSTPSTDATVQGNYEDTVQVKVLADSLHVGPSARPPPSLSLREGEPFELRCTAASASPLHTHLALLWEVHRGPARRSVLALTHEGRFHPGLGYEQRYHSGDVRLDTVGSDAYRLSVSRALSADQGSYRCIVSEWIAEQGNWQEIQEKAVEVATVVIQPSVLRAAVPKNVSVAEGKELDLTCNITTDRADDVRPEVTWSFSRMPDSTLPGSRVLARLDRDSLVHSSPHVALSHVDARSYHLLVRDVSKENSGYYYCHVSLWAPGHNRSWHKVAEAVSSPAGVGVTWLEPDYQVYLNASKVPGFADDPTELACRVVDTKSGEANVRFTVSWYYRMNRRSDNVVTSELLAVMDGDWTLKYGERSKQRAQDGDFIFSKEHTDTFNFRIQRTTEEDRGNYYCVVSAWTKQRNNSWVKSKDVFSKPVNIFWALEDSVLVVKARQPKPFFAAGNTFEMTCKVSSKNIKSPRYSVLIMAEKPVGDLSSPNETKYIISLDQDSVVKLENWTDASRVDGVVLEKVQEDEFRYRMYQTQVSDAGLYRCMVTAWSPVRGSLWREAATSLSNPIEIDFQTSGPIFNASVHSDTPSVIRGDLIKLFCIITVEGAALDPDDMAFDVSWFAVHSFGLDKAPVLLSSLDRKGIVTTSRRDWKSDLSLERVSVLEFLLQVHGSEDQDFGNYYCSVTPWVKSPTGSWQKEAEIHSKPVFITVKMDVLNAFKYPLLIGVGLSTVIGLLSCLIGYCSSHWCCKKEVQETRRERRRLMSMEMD
T1 sequence (P60033 1-236): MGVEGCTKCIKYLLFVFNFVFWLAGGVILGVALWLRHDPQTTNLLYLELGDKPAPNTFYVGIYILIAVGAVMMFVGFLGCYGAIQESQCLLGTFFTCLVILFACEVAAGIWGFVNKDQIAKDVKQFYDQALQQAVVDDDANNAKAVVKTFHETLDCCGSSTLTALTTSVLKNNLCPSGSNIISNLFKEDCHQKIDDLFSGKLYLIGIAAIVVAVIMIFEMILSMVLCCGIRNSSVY
Description: (§1) FIG. 13 is a photograph representing the dissociation of CD9-CD9P-1, CD9P-1-CD151 and CD9-CD151 complexes by P3 in HUVECs. HUVECs incubated for 2 h with 33 μM P3, PCT or solvent in EGM2-MV medium were lysed in brij 97 buffer, then CD81, CD9 or CD151 were immunoprecipitated with the corresponding antibody. Line A: Western blot results obtained with anti-CD9P-1 antibody from immunoprecipitated CD81, CD9 and CD151. Line B: Western blot results obtained with anti-CD9 antibody from immunoprecipitated CD81, CD9 and CD151. Line C: Western blot results obtained with anti-CD151 antibody from immunoprecipitated CD81, CD9 and CD151. PCT: control peptide. IP: immunoprecipitation.
(§2) To study more precisely the effect of P3 on the associations of tetraspanins CD9, CD81, and CD151 between them and with CD9P-1, immunoprecipitation (IP) experiments were performed. In the control experiment (with the solvent), CD9P-1 co-precipitated with CD9 and CD81. A weak co-precipitation was observed between […] and CD151. The associations between tetraspanins and CD9P-1 are not modified under PCT condition. However, the interactions between CD9P-1 and CD9 and between CD9P-1 and CD151 are decreased while the HUVECs are incubated for 2 hrs with 33 μM of P3. The association between CD9P-1 and CD81 is not modified by P3 (FIG. 13A).

CD9-CD9P-1 complex = target: T2, CD9-CD9P-1 complex (Homo sapiens, UniProt P21926+Q9P2B2); experiment: Immunoprecipitation in HUVECs: CD9P-1 with CD9; type: cell-based; conditions: 33 μM; 2 hrs
T2 construct: endogenous in cells; host or cells: HUVEC
T2 sequence (Q9P2B2 26-879): T1 sequence (Q9P2B2 26-879)
T2 sequence (P21926 2-228 limits assumed): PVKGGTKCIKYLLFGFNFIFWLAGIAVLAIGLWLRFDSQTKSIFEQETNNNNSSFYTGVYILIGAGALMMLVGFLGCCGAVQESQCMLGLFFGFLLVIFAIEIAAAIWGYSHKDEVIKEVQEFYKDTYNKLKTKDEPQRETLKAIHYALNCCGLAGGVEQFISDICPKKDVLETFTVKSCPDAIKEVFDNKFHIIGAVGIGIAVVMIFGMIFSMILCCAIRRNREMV
Description: as §1, §2

HUVECs = experiment: Migration test following the wound test; type: cell-based, human; conditions: 66 μM (FIG. 3); 20 hrs
Description: The migration of the cells was evaluated according to the wound test (Sato and Rifkin 1988 J Cell Biol 107, 1199-1205). HUVECs were cultivated to confluence in an EGM2-MV media. The wound width was measured using the software “Analysis” (Soft Imaging System Gmbh Digital, Olympus). Peptides to be tested were then added to the media.
A wound has been performed with a chisel tip on the cell layer. The HUVECs migration following the addition of peptides was evaluated by the wound assay and the progress of the migration front of the HUVECs was analyzed after 20 hrs of culture. […] Pictures were shot with a microscope equipped with a camera (zoom ×40).

endostatin = experiment: Endostatin production by HUVECs (ELISA); type: cell-based, human; conditions: rising concentrations; 48 hrs
Description: HUVECs were transfected with siRNA using transfecting agent GENJET according to the manufacturer's instructions. After 48 hrs of incubation, supernatants were collected, protein expression tested by western blots and endostatin quantified.
Endostatin levels were quantified by ELISAs on lysates of HUVECs incubated at rising concentrations of P3 or PCT for 48 hrs.
In order to evaluate the role of metalloproteinases (MMPs) in endostatin production, a polyvalent inhibitor of MMPs, GM6001 was used. The concentration of endostatin in supernatants is at 6.2 ng/mg of protein of the lysates/48 hrs. […] GM6001 inhibits endostatin production induced by P3. MMPs might then be implicated in endostatin production induced by P3.
HUVECs were incubated for 48 hrs in an EGM2-MV media with an anti-CD151 antibody (11G5a) or an irrelevant antibody (negative control unable to recognize any protein). Then endostatin levels were measured by ELISA in supernatants.
HUVECs cells were transfected with specific siRNA of CD151 and CD9. Protein expression was analyzed in western blots. In parallel, endostatin levels were measured by ELISA in supernatants. […] Levels of endostatin in supernatant of HUVECs cells transfected with siRNA were measured. […] On the contrary, levels of endostatin increased at 9.4 ng/mg of protein lysates/48 hrs in HUVECs depleted in CD151 (FIG. 18B). CD151 is thus involved in the production of endostatin.

NQKGCYDLVT (control peptide) [PCT]
association between CD9P-1 and CD81 [1]: not modified | interaction between CD9P-1 and CD9 (CD9-CD9P-1 complex): not modified | wound closure / HUVECs migration (HUVECs): completely closed | level of endostatin compared to the solvent condition (endostatin): does not modify the level of endostatin
